In the supplement of paper PMC10567573:

B1: ZNF449 (parent)
chain: CTHCSKSFRQRAGLIMHQVTHFRG

Variants of: B1
Assay: protein stability index of a GFP-peptide fusion (GPS, HEK-293T) (PSI 1-6); higher = more stable
Details: c terminus: a fixed tail appended
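Also: lentivirally expressed fusions sorted by FACS into six bins by GFP to DsRed ratio, PSI derived from sequencing read proportions per bin multiplied by bin number.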

| Variant | protein stability index |
| --- | --- |
| CTHVSKSFRQRAGLIMHQVTHFRG [C4V] | 1.58 |
| CTHISKSFRQRAGLIMHQVTHFRG [C4I] | 2.58 |
| CTHKSKSFRQRAGLIMHQVTHFRG [C4K] | 1.63 |
| CTHDSKSFRQRAGLIMHQVTHFRG [C4D] | 1.66 |
| CTHSSKSFRQRAGLIMHQVTHFRG [C4S] | 1.33 |
| CTHTSKSFRQRAGLIMHQVTHFRG [C4T] | 2.18 |
| CTHRSKSFRQRAGLIMHQVTHFRG [C4R] | 2.11 |
| CTHQSKSFRQRAGLIMHQVTHFRG [C4Q] | 1.98 |
| CTHNSKSFRQRAGLIMHQVTHFRG [C4N] | 2.17 |
| CTHESKSFRQRAGLIMHQVTHFRG [C4E] | 1.77 |
| CTHLSKSFRQRAGLIMHQVTHFRG [C4L] | 2.13 |
| CTHGSKSFRQRAGLIMHQVTHFRG [C4G] | 1.8 |
| CTHWSKSFRQRAGLIMHQVTHFRG [C4W] | 3.01 |
| CTHHSKSFRQRAGLIMHQVTHFRG [C4H] | 2.39 |
| CTHASKSFRQRAGLIMHQVTHFRG [C4A] | 2.6 |
| CTHPSKSFRQRAGLIMHQVTHFRG [C4P] | 1.6 |
| CTHMSKSFRQRAGLIMHQVTHFRG [C4M] | 1.68 |
| CTHCSASFRQRAGLIMHQVTHFRG [K6A] | 4.92 |
| CTHCSQSFRQRAGLIMHQVTHFRG [K6Q] | 3.32 |
| CTHCSRSFRQRAGLIMHQVTHFRG [K6R] | 1.91 |
| CTHCSCSFRQRAGLIMHQVTHFRG [K6C] | 1.52 |
| CTHCSTSFRQRAGLIMHQVTHFRG [K6T] | 2.84 |
| CTHCSLSFRQRAGLIMHQVTHFRG [K6L] | 2.3 |
| CTHCSDSFRQRAGLIMHQVTHFRG [K6D] | 1.62 |

| Variant | protein stability index |
| --- | --- |
| CTHCSYSFRQRAGLIMHQVTHFRG [K6Y] | 2.62 |
| CTHCSESFRQRAGLIMHQVTHFRG [K6E] | 1.58 |
| CTHCSMSFRQRAGLIMHQVTHFRG [K6M] | 1.88 |
| CTHCSISFRQRAGLIMHQVTHFRG [K6I] | 2.47 |
| CCHCSKSFRQRAGLIMHQVTHFRG [T2C] | 2.09 |
| CQHCSKSFRQRAGLIMHQVTHFRG [T2Q] | 2.84 |
| CRHCSKSFRQRAGLIMHQVTHFRG [T2R] | 2.18 |
| CSHCSKSFRQRAGLIMHQVTHFRG [T2S] | 1.98 |
| CEHCSKSFRQRAGLIMHQVTHFRG [T2E] | 2.4 |
| CMHCSKSFRQRAGLIMHQVTHFRG [T2M] | 1.71 |
| CNHCSKSFRQRAGLIMHQVTHFRG [T2N] | 2.29 |
| CPHCSKSFRQRAGLIMHQVTHFRG [T2P] | 1.82 |
| CVHCSKSFRQRAGLIMHQVTHFRG [T2V] | 1.98 |
| CGHCSKSFRQRAGLIMHQVTHFRG [T2G] | 1.5 |
| CDHCSKSFRQRAGLIMHQVTHFRG [T2D] | 1.86 |
| CHHCSKSFRQRAGLIMHQVTHFRG [T2H] | 1.92 |
| CLHCSKSFRQRAGLIMHQVTHFRG [T2L] | 1.97 |
| CKHCSKSFRQRAGLIMHQVTHFRG [T2K] | 2.25 |
| CIHCSKSFRQRAGLIMHQVTHFRG [T2I] | 2.7 |
| CFHCSKSFRQRAGLIMHQVTHFRG [T2F] | 1.45 |
| CTHCSKMFRQRAGLIMHQVTHFRG [S7M] | 1.57 |
| CTHCSKPFRQRAGLIMHQVTHFRG [S7P] | 1.59 |
| CTHCSKQFRQRAGLIMHQVTHFRG [S7Q] | 1.76 |
| CTHCSKFFRQRAGLIMHQVTHFRG [S7F] | 2.49 |

| Variant | protein stability index |
| --- | --- |
| CTHCSKLFRQRAGLIMHQVTHFRG [S7L] | 2.69 |
| CTHCSKKFRQRAGLIMHQVTHFRG [S7K] | 2.62 |
| CTHCSKDFRQRAGLIMHQVTHFRG [S7D] | 2.18 |
| CTHCSKAFRQRAGLIMHQVTHFRG [S7A] | 2.14 |
| CTHCSKEFRQRAGLIMHQVTHFRG [S7E] | 2.29 |
| CTHCSKRFRQRAGLIMHQVTHFRG [S7R] | 1.31 |
| CTHCSKIFRQRAGLIMHQVTHFRG [S7I] | 1.73 |
| CTHCSKNFRQRAGLIMHQVTHFRG [S7N] | 2.58 |
| CTHCSKCFRQRAGLIMHQVTHFRG [S7C] | 2.98 |
| QTHCSKSFRQRAGLIMHQVTHFRG [C1Q] | 3.23 |
| NTHCSKSFRQRAGLIMHQVTHFRG [C1N] | 1.72 |
| FTHCSKSFRQRAGLIMHQVTHFRG [C1F] | 1.22 |
| WTHCSKSFRQRAGLIMHQVTHFRG [C1W] | 3.78 |
| ETHCSKSFRQRAGLIMHQVTHFRG [C1E] | 1.77 |
| VTHCSKSFRQRAGLIMHQVTHFRG [C1V] | 1.64 |
| KTHCSKSFRQRAGLIMHQVTHFRG [C1K] | 2.66 |
| TTHCSKSFRQRAGLIMHQVTHFRG [C1T] | 1.5 |
| STHCSKSFRQRAGLIMHQVTHFRG [C1S] | 1.91 |
| YTHCSKSFRQRAGLIMHQVTHFRG [C1Y] | 1.2 |
| DTHCSKSFRQRAGLIMHQVTHFRG [C1D] | 2.01 |
| RTHCSKSFRQRAGLIMHQVTHFRG [C1R] | 1.93 |
| MTHCSKSFRQRAGLIMHQVTHFRG [C1M] | 1.53 |
| ATHCSKSFRQRAGLIMHQVTHFRG [C1A] | 2.17 |
| LTHCSKSFRQRAGLIMHQVTHFRG [C1L] | 2.48 |

| Variant | protein stability index |
| --- | --- |
| ITHCSKSFRQRAGLIMHQVTHFRG [C1I] | 1.74 |
| HTHCSKSFRQRAGLIMHQVTHFRG [C1H] | 1.96 |
| CTWCSKSFRQRAGLIMHQVTHFRG [H3W] | 1.38 |
| CTPCSKSFRQRAGLIMHQVTHFRG [H3P] | 1.04 |
| CTRCSKSFRQRAGLIMHQVTHFRG [H3R] | 1.77 |
| CTDCSKSFRQRAGLIMHQVTHFRG [H3D] | 3.44 |
| CTSCSKSFRQRAGLIMHQVTHFRG [H3S] | 1.66 |
| CTNCSKSFRQRAGLIMHQVTHFRG [H3N] | 2.18 |
| CTYCSKSFRQRAGLIMHQVTHFRG [H3Y] | 2.28 |
| CTLCSKSFRQRAGLIMHQVTHFRG [H3L] | 2.08 |
| CTMCSKSFRQRAGLIMHQVTHFRG [H3M] | 2.42 |
| CTTCSKSFRQRAGLIMHQVTHFRG [H3T] | 2.09 |
| CTKCSKSFRQRAGLIMHQVTHFRG [H3K] | 2.22 |
| CTFCSKSFRQRAGLIMHQVTHFRG [H3F] | 2.09 |
| CTECSKSFRQRAGLIMHQVTHFRG [H3E] | 2.11 |
| CTQCSKSFRQRAGLIMHQVTHFRG [H3Q] | 1.45 |
| CTHCTKSFRQRAGLIMHQVTHFRG [S5T] | 1.49 |
| CTHCHKSFRQRAGLIMHQVTHFRG [S5H] | 2.03 |
| CTHCLKSFRQRAGLIMHQVTHFRG [S5L] | 1.49 |
| CTHCEKSFRQRAGLIMHQVTHFRG [S5E] | 1.67 |
| CTHCPKSFRQRAGLIMHQVTHFRG [S5P] | 2.28 |
| CTHCGKSFRQRAGLIMHQVTHFRG [S5G] | 2.06 |
